Literature values as cited in article PMC4456024.

Molecular target: cTnI147-163 (Homo sapiens)
Experiment: NMR titration

Kd: 150 µM
Substance: cTnC (cNTnC) 1-89 (from UniProt P63316)
